From patent US20220089695A1 (NEW YORK UNIVERSITY, published 2022)

Key:
[1] = molecular target: T1, Fc-tagged SARS-CoV-2 S2 subunit (SARS-CoV-2; human, UniProt P0DTC2 686-1213); test: CDS imaging on HEK293T cells expressing L-SIGN, anti-human Fc detection
T1 construct: domain: S2

[2] = molecular target: T2, Human IgG1 Fc-tagged SARS-CoV-2 S receptor-binding domain (SARS-CoV-2; human, UniProt P0DTC2 319-541); test: Fc-tagged protein on receptor-expressing HEK293T cells (FIG. 13B)
T2 construct: domain: RBD

[3] = molecular target: SARS-CoV-2 S protein displayed on lentiviral (HIV-GFP) pseudovirus (SARS-CoV-2, UniProt P0DTC2 14-1273); test: pseudovirus on transfected HEK293T cells on ice, anti-S staining, flow cytometry
[4] = molecular target: Human IgG1 Fc-tagged SARS-CoV-2 Spike (S) recombinant protein (SARS-CoV-2; human, UniProt P0DTC2 16-1213); test: Fc-tagged protein on receptor-transfected HEK293T cells, CDS imaging
[5] = molecular target: T1, Fc-tagged SARS-CoV-2 S2 subunit; test: CDS imaging on HEK293T cells expressing DC-SIGN, anti-human Fc detection
[6] = molecular target: Recombinant SARS-CoV-2-S1 protein with His tag (SARS-CoV-2, UniProt P0DTC2 16-685)
[7] = molecular target: T3, Fc-tagged SARS-CoV-2 S N-terminal domain (SARS-CoV-2; human, UniProt P0DTC2 14-305); test: Fc-tagged S domain on receptor-transfected HEK293T cells, CDS imaging
T3 construct: domain: NTD

[8] = molecular target: T1, Fc-tagged SARS-CoV-2 S2 subunit; test: CDS imaging on HEK293T cells expressing LSECtin, anti-human Fc detection

B1: Liver/lymph node-specific intercellular adhesion molecule-3-grabbing integrin expressed on cells (receptor)
chain: MSDSKEPRVQQLGLLEEDPTTSGIRLFPRDFQFQQIHGHKSSTGCLGHGALVLQLLSFMLLAGVLVAILVQVSKVPSSLSQEQSEQDAIYQNLTQLKAAVGELSEKSKLQEIYQELTQLKAAVGELPEKSKLQEIYQELTRLKAAVGELPEKSKLQEIYQELTRLKAAVGELPEKSKLQEIYQELTRLKAAVGELPEKSKLQEIYQELTELKAAVGELPEKSKLQEIYQELTQLKAAVGELPDQSKQQQIYQELTDLKTAFERLCRHCPKDWTFFQGNCYFMSNSQRNWHDSVTACQEVRAQLVVIKTAEEQNFLQLQTSRSNRFSWMGLSDLNQEGTWQWVDGSPLSPSFQRYWNSGEPNNSGNEDCAEFSGSGWNDNRCDVDNYWICKKPAACFRDE
notes: whole, on cells; also called L-SIGN; CLEC4M
B1: binds [1].

B2: Tweety Family Member 2 expressed on cells (receptor)
chain: MQAARVDYIAPWWVVWLHSVPHVGLRLQPVNSTFSPGDESYQESLLFLGLVAAVCLGLNLIFLVAYLVCACHCRRDDAVQTKQHHSCCITWTAVVAGLICCAAVGVGFYGNSETNDGAYQLMYSLDDANHTFSGIDALVSGTTQKMKVDLEQHLARLSEIFAARGDYLQTLKFIQQMAGSVVVQLSGLPVWREVTMELTKLSDQTGYVEYYRWLSYLLLFILDLVICLIACLGLAKRSKCLLASMLCCGALSLLLSWASLAADGSAAVATSDFCVAPDTFILNVTEGQISTEVTRYYLYCSQSGSSPFQQTLTTFQRALTTMQIQVAGLLQFAVPLFSTAEEDLLAIQLLLNSSESSLHQLTAMVDCRGLHKDYLDALAGICYDGLQGLLYLGLFSFLAALAFSTMICAGPRAWKHFTTRNRDYDDIDDDDPFNPQAWRMAAHSPPRGQLHSFCSYSSGLGSQTSLQPPAQTISNAPVSEYMNQAMLFGRNPRYENVPLIGRASPPPTYSPSMRATYLSVADEHLRHYGNQFPA
notes: whole, on cells; also called TTYH2; TTHY2
B2: binds [2].

B3: C-type lectin domain family 10 member A expressed on cells (receptor)
chain: MTRTYENFQYLENKVKVQGFKNGPLPLQSLLQRLCSGPCHLLLSLGLGLLLLVIICVVGFQNSKFQRDLVTLRTDFSNFTSNTVAEIQALTSQGSSLEETIASLKAEVEGFKQERQAGVSELQEHTTQKAHLGHCPHCPSVCVPVHSEMLLRVQQLVQDLKKLTCQVATLNNNASTEGTCCPVNWVEHQDSCYWFSHSGMSWAEAEKYCQLKNAHLVVINSREEQNFVQKYLGSAYTWMGLSDPEGAWKWVDGTDYATGFQNWKPGQPDDWQGHGLGGGEDCAHFHPDGRWNDDVCQRPYHWVCEAGLGQTSQESH
notes: whole, on cells; also called CLEC10A
B3: binds [3]; binds [4].

B4: Dendritic cell-specific intercellular adhesion molecule-3-grabbing nonintegrin expressed on cells (receptor)
chain: MSDSKEPRLQQLGLLEEEQLRGLGFRQTRGYKSLAGCLGHGPLVLQLLSFTLLAGLLVQVSKVPSSISQEQSRQDAIYQNLTQLKAAVGELSEKSKLQEIYQELTQLKAAVGELPEKSKLQEIYQELTRLKAAVGELPEKSKLQEIYQELTWLKAAVGELPEKSKMQEIYQELTRLKAAVGELPEKSKQQEIYQELTRLKAAVGELPEKSKQQEIYQELTRLKAAVGELPEKSKQQEIYQELTQLKAAVERLCHPCPWEWTFFQGNCYFMSNSQRNWHDSITACKEVGAQLVVIKSAEEQNFLQLQSSRSNRFTWMGLSDLNQEGTWQWVDGSPLLPSFKQYWNRGEPNNVGEEDCAEFSGNGWNDDKCNLAKFWICKKSAASCSRDEEQFLSPAPATPNPPPA
notes: whole, on cells; also called DC-SIGN; CD209
B4: binds [5].

B5: Recombinant DC-SIGN (CD209) with human Fc tag (Fc fusion)
chain: QVSKVPSSISQEQSRQDAIYQNLTQLKAAVGELSEKSKLQEIYQELTQLKAAVGELPEKSKLQEIYQELTRLKAAVGELPEKSKLQEIYQELTWLKAAVGELPEKSKMQEIYQELTRLKAAVGELPEKSKQQEIYQELTRLKAAVGELPEKSKQQEIYQELTRLKAAVGELPEKSKQQEIYQELTQLKAAVERLCHPCPWEWTFFQGNCYFMSNSQRNWHDSITACKEVGAQLVVIKSAEEQNFLQLQSSRSNRFTWMGLSDLNQEGTWQWVDGSPLLPSFKQYWNRGEPNNVGEEDCAEFSGNGWNDDKCNLAKFWICKKSAASCSRDEEQFLSPAPATPNPPPA
With B5 the “EC50 (read off the curve)” value [6] was about 0.8 µg/mL.

B6: Asialoglycoprotein Receptor 1 expressed on cells (receptor)
chain: MTKEYQDLQHLDNEESDHHQLRKGPPPPQPLLQRLCSGPRLLLLSLGLSLLLLVVVCVIGSQNSQLQEELRGLRETFSNFTASTEAQVKGLSTQGGNVGRKMKSLESQLEKQQKDLSEDHSSLLLHVKQFVSDLRSLSCQMAALQGNGSERTCCPVNWVEHERSCYWFSRSGKAWADADNYCRLEDAHLVVVTSWEEQKFVQHHIGPVNTWMGLHDQNGPWKWVDGTDYETGFKNWRPEQPDDWYGHGLGGGEDCAHFTDDGRWNDDVCQRPYRWVCETELDKASQEPPLL
notes: whole, on cells; also called ASGR1
B6: binds [7]; binds [3]; binds [4].

B7: Liver and lymph node sinusoidal endothelial cell C-type lectin expressed on cells (receptor)
chain: MDTTRYSKWGGSSEEVPGGPWGRWVHWSRRPLFLALAVLVTTVLWAVILSILLSKASTERAALLDGHDLLRTNASKQTAALGALKEEVGDCHSCCSGTQAQLQTTRAELGEAQAKLMEQESALRELRERVTQGLAEAGRGREDVRTELFRALEAVRLQNNSCEPCPTSWLSFEGSCYFFSVPKTTWAAAQDHCADASAHLVIVGGLDEQGFLTRNTRGRGYWLGLRAVRHLGKVQGYQWVDGVSLSFSHWNQGEPNDAWGRENCVMMLHTGLWNDAPCDSEKDGWICEKRHNC
notes: whole, on cells; also called LSECtin; CLEC4G
B7: binds [8].
